This is an account of results in paper PMC6908506, “Development of Foot-and-Mouth Disease Virus-Neutralizing Monoclonal Antibodies Derived From Plasmablasts of Infected Cattle and Their Germline Gene Usage” (Frontiers in Immunology, 2019).

To fix the notation:
B1: F64 (antibody, V domains shown)
VH: QVQLRESGPSLVKPSQTLSLTCTVSGLSLNSIGVIWVRQAPGKALEWVGGINSGGSTYYKSALKSRLSITKDNSNSQVSLSLNSVTPEDTATYYCATYVGDFWGQGLLVTVSS
VL: QAVLTQPSSVSGSLGQRISITCSGSSSNIGRYNVGWYQQVPGSGLRTIIYGSSSRPSGVPDRFSGSKSGNTATLTISSLQAEDEADYFCAADDNSNSTAVFGSGTTLNVL
B2: F56 (antibody, V domains shown)
VH: QVQLRESGPSLVKPSQTLSLTCTFSGFSLSSNGVLWVRQAPGKALEWLGGMCRSGSTNFNPALKSRLSITKNNSKSQVSLSVSSVTPEDTATYYCTTGFDLDCDWGYEDSTWGQGLLVTVSS
VL: QAVLTQPSSVSGSLGQRVSITCSGSSSNIGNDDVGWYQQIPGSGLRTIIYGNNSRPSGVPDRFSGSKSGNTATLTISSLQAEDEADYFCASADDNTSTAVFGSGTTLTVL
B3: F4 (antibody, V domains shown)
VH: QVQLRESGPSLVKPSQTLSLTCTVSGFSLSSSGVVWVRQAPGKALEWVGSLSSGGLTSRNPALKSRISITKDNSKSQVSLSMSSVTPEDTATYYCAKCGGFYGSTCNGYGSSYDFWGRGLLVTVSS
VL: QAVLTQPSSVSGSLGQRVSITCSGSSSNVGNGYVSWYQLIPGSAPRTLIYGDTSRASGVPDRFSGSRSGNTATLTISSLQAEDEADYFCASAEDSSSNAVFGSGTTLTVL
B4: F115 (antibody)
VH: QVQLRESGPSLVKPSQTLSLTCTASGFSLSDKTLGWVRQAPGKALEWLGSMDSGGNTGYNPDLKSRLSITKDNSRSQVSLSVSSVTTEDSATYYCTTTHQISRKEQRCPDGCRVNGWWGDSGCDDDTYCRYNYWGNCIRCTYVYTYEFHVDAWGQGLLVTVSS
VL: QAVLTQPSSVSGSLGQRVSITCSGSSSNVENGYVSWYQLIPGSTPKTLIYGDTSRASGVPARFSGSRSGNTATLTISSLQAEDEADYFCASAEDTSSNAVFGSGTTLTVL
B5: F36 (antibody, V domains shown)
VH: QVQLRESGPSLVKPSQTLSLTCTVSGFSLSSYAVNWVRQAPGKALECLGSIGSGGSTGYNPALKSRLSITKDNSKSQVSLSVSSVTPEDTATYYCAKTTYSGDSRTFYGCYGSGSAYETYVDTWGQGLLVTVSS
VL: QAVLTQPSSVSGSLGQRVSITCSGSSNNIGNNGVVWYQQVPGSGLRTIIYGSTGRPSGVPDRFSGSKSGNTATLTISSLQAEDEADYFCGTADDSSSIAVFGSGTTLTVL
B6: F39 (antibody, V domains shown)
VH: QVQLRESGLSLVKPSQTLSLTCTVSGFSLSSYGVGWVRQAPGKALECLGGITSGGSADYNPALKSRLSITKDNSKSQVSLSLSSVTTEDTATYYCGKTSRFYGLVCNVDFYDDSEYVDAWGQGLLVTVSS
VL: QAVLTQPSSVSGSLGQRVSITCFGSSNDVGYGDYVSWFQQIPGSAPRMIIYGATRRPSGVPDRFSGSRSGNTATLTINSLQAEDEADYFCASPVGLGSGYPIFGSGTALTVL
B7: F45 (antibody, V domains shown)
VH: QVQLRESGPSLVKPSQILSLTCTVSGFSLSSNGAVWVRQAPGKTLEWIGGISVDGSVRYNPALNSRLSITKDNSKSQVSLSMTSATPEDTATYFCVRCFSGYSPNSVCSTADYVDAWGQRLLVTVSS
VL: QAVVNQPSSVSGSLGQRVFITCSGSSSNVGNGYVIWYQLIPGSGPTTLIYGDASRPSGVPDRFSGSRSGNTATLTIISLQAEDEEDYFCASAEDSSTNAVFGSGTTLTVL
B8: F104 (antibody, V domains shown)
VH: QVQLRESGPSLVKPSQTLSLTCTVSGFSLSSYDVGWVRQAPGKGLECLGGIGNRGNTKYNPALKSRLSITKDNSKSQVSLSLSSVTSEDTATYYCTKSYGGNDVYDCYDSEYWGQGLLVTVSS
VL: QAVLTQPSSVSGSLGQRVSITCSGSSNNIGRYSVGWYQQVPGSGLRTIIYISSSRPSGVPDRFSGSKSGNTATLTISSLQAEDEADYFCATNDYSSDTTIFGSGTTLTVL

The target in the experiment is T1, FMDV O/Mya/98 146S antigen (Foot-and-mouth disease virus serotype …, UniProt G8JKC2, strain).
T1 construct: also called purified virus antigen; copies: + + +
Description: immunostaining of cells or tissue. Particulars: one partner purified.
For B1, the binding result is recorded as “binds”.
Consider B2, for which the binding result was “binds”.
Take B3: the binding result is “binds”.
B4: the binding result is recorded as “binds”.
Under B5 stands “binds”; under B6, “binds”; under B7, “binds”.
As for B8, the binding result is listed as “binds”.
